Measured values from the nanobody polyreactivity screen of Harvey et al. (2022).

Assay: yeast display, Sf9 membrane polyspecificity reagent, FACS + sequencing; frameworks hold sequencing errors
In short: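 Genes from sorted yeast were amplified by colony PCR, read by MiSeq 2 × 250 sequencing and filtered on CDR length. These cells carried a synthetic nanobody library in Saccharomyces cerevisiae BJ5465 and were sorted by FACS into low and high (top ~1%) gates on anti-HA and streptavidin fluorescence. Polyreactivity is labelled according to the gate of origin.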

Sequence: QVQLVESGGGLVQAGGSLRLSCAASGRTFGRYAMGWYRQAPGKERELVARIRTSGGRTYYADSVKGRFTISRDNAKYTVYLQMNSLKPEDTAVYYCATTSQPWYYWSTQGDDYWGQGTQVTVSS
- polyreactivity (PSR sort gate): low polyreactivity

Sequence: QVQLVESGGVLVQEGGSLSLSCTASRSIFLKYAMGWYRQAPGKERELVAAISSRDASTYYADSVKGRFSISRDNAKKSVYLQMNSLKPEDTAVYYCNVAQNYWAGLYDYWGQGTQVTVSS
- polyreactivity (PSR sort gate): high polyreactivity

Sequence: HVQLQESDGGLVQAGGSLRLSCAASGSISPQYYMCWYRQAPGKEREFVAISKGTTTYYADSVKGRLTISRVNAKNTVYLQMNSLKPEDTAVYCCAAGRWLQKVHAYWDQGTQVTVSS
- polyreactivity (PSR sort gate): low polyreactivity

Sequence: QVQLVESGGGLVQAGGSLRLICAASGIIYYYYAMGWYRQAPGKERELVAAINFSVGGTYYADSVKGSFTNSRDNAKNSVYLQMNSQKPEDTAVYYCAKDIVIPATYVEYDYWGQGTQVTVSS
- polyreactivity (PSR sort gate): low polyreactivity

Sequence: QVQLVEAGGGLVQAGGSLRLSCAASGFIFPSYVRGWYSQAPGKERELVATISRSGGSTYYADSVKGRFTISRDNAKNTGYLQMNSLKPEDTAVYYCATRRRGPYSPYSPYDYWGQGTQVTVSS
- polyreactivity (PSR sort gate): high polyreactivity

Sequence: QVQLVESGGGLVQAGGSLRLSCAASGNTFSGTTMGWYRQAPGKERELVAAIRFTGGSTTYADSVKGRFTISRDNAKNTVYLQMNRLKPEDTAVYYCNTDWVSFRSIYHEYDYWGQGTQVTVSS
- polyreactivity (PSR sort gate): low polyreactivity

Sequence: QVQLVESGGGLVQAGGSLRLSCAASGRIFPVYVMGSYREAPGKEREFVASISWRGGSTFYADSVKGRFTISRDNAKNTVYLQMNSLKPEDTAVYYCAADYWSSDSSRGTMYYWGQGTQVTVSS
- polyreactivity (PSR sort gate): low polyreactivity

Sequence: QVQLVESGGGLVQARGSLRLSCAASGSIFDFYAMGWYRQAPGKERELVAAISGSGGSTYYADSVKARFTISRDNAKNNGYLQMISLKPDDTAVYYCSYYYWGQGTQVTVSS
- polyreactivity (PSR sort gate): low polyreactivity

Sequence: QVQLVESGGGLVQAGGSLRLSCAASGSTFVYYAMGWYRQAPGTERELVAAITGSVDSTYYADSVKGRFTISRDNAKNPVYLQMNSLQPEDTAVYYCAADTYSTYWGQGTQVTVSS
- polyreactivity (PSR sort gate): low polyreactivity

Sequence: QVQLVETGGGLVQAGGSLRLSSAASGSTFRDYDMGWYRQARGKERELVAAISLSGGRTHYADSVKGRFTISRDNAKNTVYLQMNSLKPEDTAVYYCAARNSGPVQYYYWGQGTHVTVSS
- polyreactivity (PSR sort gate): low polyreactivity

Sequence: QVQLVESGGGLVQAGGTLRLSCAPSGRIFGIYDMGWYRQAPGKERELVADIDVSDGSTYYADSVKGRFTISRDNAKNTVYLQMNSMKPEDTAVYYCNAEDSSRWYDWYLHDYWGQGTQVTVSS
- polyreactivity (PSR sort gate): high polyreactivity

Sequence: QVQLVESGGGLVQAGGSLRLSCAASGRIFTLYAMGWYRQAPGKERELVAGISRSGGSTYYADSVKGRFTISRDNAKNTVYFQMNSLKPEDTAVYYCNAVPIYYAWRRNKPFDYWGQGTQVTVSS
- polyreactivity (PSR sort gate): low polyreactivity

Sequence: QVQLVESGGGLVQAGGSLRLSCAASGRIFDSNAMGWYRQAPGKERELVAAITYSGGGTFYADSVKGRFTISRDNAKNTVYLQMNRLKPEDTAVYYCNAGYFTEYNSWGQGTQVTVSS
- polyreactivity (PSR sort gate): high polyreactivity

Sequence: QVQLVESGGGLVQAGGSLRLSCAASGSTFSYYAIGWYRQAPGKERELVAAISRRGGSTYYADSVKGRFTISRDNAKNTVYLQMNRLKPEDTAVYYCAADYYFSSRIEYYYWGQGTQVTVSS
- polyreactivity (PSR sort gate): high polyreactivity

Sequence: QVQLVESGGGLVQAGGSLRLSCAASGSIFGWNAMGWYRQAPGKERELVAAISSGGSTYYADSVKGRFTISRDNAKNTVYLQMNSLKPQDTAVYYCNAFFQYYDYWGQGTQVTVSS
- polyreactivity (PSR sort gate): low polyreactivity

Sequence: QVQLGESGGGLVQAGGCLRLSCAASGSIFAANAMGWYRQAPGKERELVAAINSGDSTNYADSVKGRFTISRDYAKKTVYLQMNSLKPEDTAVYYCARGLEERYDYWGQGTQVTVSS
- polyreactivity (PSR sort gate): low polyreactivity

Sequence: QVQLVESGGGLVQAGGSLRLSCAASGSIFTPYAMGWYRQAPGKERELVAAITSGGSTYADSVKGRFTISRDNAKNTVYLQMNSLKPEDTAVYYCAADRSYVYAGADMYYWGQGTQVTVSS
- polyreactivity (PSR sort gate): low polyreactivity

Sequence: QVQLVESGGGLVQAGGSLRLSCAASGSIFVIYAMGWYRPAPGKERELVAAITGRGGRTYYADSVKGRFTISRDNAKNTVYLQMISLKPEDNAVYYCAADSVYTLGLKYDYWGHGTQVTVSS
- polyreactivity (PSR sort gate): high polyreactivity

Sequence: QVQLVESGGGLVQAGGSLRLSCAASGLIFYFNAMGWYRQAPGKERELVASITRTGSTNYADSVKGRFTISRDNAKNTVYLQMNSLKAEDTAVYYCAAYGPVYPHEYDYWGHGTQVTVSS
- polyreactivity (PSR sort gate): low polyreactivity

Sequence: QVQLVESGGGLVQEGGSLRLSCAASASIFRYNAMGWYRQAPGKERELVAAITSRDGSTYYADSVKGRFTISRDNAQNTVYFQMNSLKPEDTAVYYCAVQPDSGNYDSGIYDRVGMDYWGQGTQVTVSS
- polyreactivity (PSR sort gate): low polyreactivity

Sequence: QVQLVESGGGLVQAGGSLRLSCAASGRIFGSYAMGWYRQAPGKERELVAAINWRGGSTFYADSVKGRFTISRDNAKNTVYLQMNSLKPEDTAVYSCARRGYRQSGDYWGQGTQVTVSS
- polyreactivity (PSR sort gate): low polyreactivity

Sequence: QVQLQESGGGLEQAGGSLRLTCAASGNISVTGFMGWYRQEPGKEREIVASIGIGGTTYYADSVKGRFYISRDNAKNTVYLQMNSLKPEDTAVYYCADRYLYYAYSYWCQGTQVTVSS
- polyreactivity (PSR sort gate): low polyreactivity

Sequence: QVQLVESGGGLVQAGGSLRLSCAASGITFTFNAKGWYRQAPGKERELVAAISSTTSTIYADSVKRRFTISRDNAKNTVYLQMNRLKPEDTAVYYCAAVEFELLGDYWRQGTQVTVSS
- polyreactivity (PSR sort gate): low polyreactivity

Sequence: QVQLVESGGGLVQAGGSLRLSCAASGSIFFIYAMGWYRQAPGTERELVATITSGGSTYYADSVKGRFTISRDNAKNTVYLQMNSLKPEDTAVYYCAVDEYYAFDYWGQGTQVTVSS
- polyreactivity (PSR sort gate): low polyreactivity

Sequence: QVQLVESGGGLVQAGGSLRLSCAASGNIFGHYTMGGYRQAPGKERELVAAISRTGGRTYYADSVKGRFTISRDNAKKTVYLQMNSLKPEDTAVYYCAADKGGTYFNGDSWGQGTQVTVSS
- polyreactivity (PSR sort gate): high polyreactivity

Sequence: QVQLVESGGGLVQAGGSLRLSCAASGRIFIRAMGWYRQAPGKERELVAGITNGGITYYADSVKGRFTISRDNAKNTVYLQMISLKPEDTAVYFCNDRSSSVDYNYDYWGQGTQVTVSS
- polyreactivity (PSR sort gate): low polyreactivity

Sequence: QLQLVESGGVIVQAGGSLRLSCAASGITIYYNAMGGYRHAPGQVRELVAAITRSGGSPNYADSVKGRFTISRDNAKNNVYLQMKSLKPEDTAVYSCAKGHLYAGHRHYAYGYWGQGTQVTVSS
- polyreactivity (PSR sort gate): low polyreactivity

Sequence: QDQLVDSGGGLVQAGGSLRLSCAASGRIFGYNSMGWYRQAPGKERELVASISSDGRTYYADSVKGRFTISRDNAKNTVYLQMNSLKPEDTAVYYCAAKEWYFTTWYTYYERDYWGQGTQVTLSS
- polyreactivity (PSR sort gate): high polyreactivity

Sequence: QVQLVESGGALVQAGGSLRLSCAASGFILNKNVMGWYRQPPRKERELVAAITGSGGRTYYADSVKGRFTISRDNAKNTVYLQMNCLKPEDTAVFYCNALPGTQYNYWGQGTQVTVSS
- polyreactivity (PSR sort gate): high polyreactivity

Sequence: QVQLVESGGGLVQAGGSLRLSCAASGIIFNTYAMGWYRQAPGKERELVAAIDSRDASTYADSVKGRFTISRDNAKNTVYVQMNSLKPEDTAVYYCNARIESYWLDFDYWGQGTQVTVSS
- polyreactivity (PSR sort gate): low polyreactivity

Sequence: QVQLVETGGGLVQAGGSLRLSCAASGSTIYLYAAMGLYRQAPGKESELVAAISGSGGSTFYADSVKGRFTISRDNAKNTVYLQMNSLKPEDTAVYYCAADKRYPYETYRPSVSASDSWGQGTQVTVSS
- polyreactivity (PSR sort gate): low polyreactivity

Sequence: QVQLVESGGGIVHAGCSLRLSSTASRFIFWWYAMAGYRQAHGKERELVATITASVGSTNYADSVKGRFTISRDNAKNTVYLQMNSLNPEDTAVYYCATDIIGAIRDWDHTRMDYWGQGTQVTVSS
- polyreactivity (PSR sort gate): low polyreactivity

Sequence: QVQLVESGGGLVQAGCSLRLSCAASGSIFYQYSMGWYRQAPGKERELVAAITWDGSRTYYADSVKGRFTISRDNAKNSVYLQMNSLKPEDTSVYYSNAVTRYSLFDYWGLGTQVTVSS
- polyreactivity (PSR sort gate): high polyreactivity

Sequence: QVQLVESGGGLVQAGGSLRLSCAASGRIFTNNPMGWYRQAPGQERELVAAISRSGGRTYYADSVKGRFTISRDNAKNTVYLQRNCLKPEDTAVYYCAAVHLYYGYNSPFTMDYWGQGTQVTVSS
- polyreactivity (PSR sort gate): high polyreactivity

Sequence: QVQLVESGGGLVQAGGSLRLSCAASGSTFDPNAMGWYRQAPAKERELVAAISYTGGRTYYADSVKGRFTISRDNAKNTVYLQMNSLKPEDTAVYYCAVLVVGSTTQDEPYFSGVEHDYWGQGTQVTVSS
- polyreactivity (PSR sort gate): low polyreactivity

Sequence: QVQLVESAGRLVQAGGSLRLSCAPSGSIFSHNAMGWYRPAPGKERELVAAISRSGGSTYYADSVKGRFTISRDNAKNTVYLQMNSQKPEDTAVYYCNALGRISNHTLYDYWGQGTQVTVSS
- polyreactivity (PSR sort gate): low polyreactivity

Sequence: QVQLVESGGGLVQAGGSLRLSCAASGFIFTWYAMGWYRQAPGKEREFVAAITSRGTSTYYADSVKGRFTISRDNAKNTVYLQMNSLKPEDTAVYYCAARASYTRRHVGRPYDYWGQGTQVTVSS
- polyreactivity (PSR sort gate): high polyreactivity

Sequence: QVQLVESGGGLVQAGGSLRISCAASGRIFYVYAMGWYRQAPGKERELVAAITSGGSTYYADSVKGRFTISRDNAKNTVYLQMNSLKPEDTAVYYCAAYNRGRFRPYRFEYWGQGTQVTVSS
- polyreactivity (PSR sort gate): high polyreactivity

Sequence: QVQLLESGGGKVQAVGSLRLSCAASGSIDDWYAMGWYRQAPGKERELLAAINEGGGSTYYADSVKGRFTISRDNAKNTVYFQMNILKPEDTAFYYCNAELSFRYPVFRELDYWGQGSQVTVSS
- polyreactivity (PSR sort gate): low polyreactivity

Sequence: QVQLVESGGGLVQAGGSLRLSCAASGSIFYVYAMGWYRQAPGKERELVAAIRRSGTSTYYADSVKGRFTISRDNAKNTVYLQMNSLKPEDSAVYYCAARYEVRHTLYNYWGQGTQVTVSS
- polyreactivity (PSR sort gate): high polyreactivity

Sequence: QVQLEESGGGLVQAGGSLRLSCAASGRIFWWYGMGWYREAPGKERELVASITYSGVSTYYADSVKGRFTISRDNAKNTVYLQMNSLTPEDTAVYYCAADRSRYFSYKYDYWGQGTQVTVSS
- polyreactivity (PSR sort gate): high polyreactivity

Sequence: QVQLVESGGGLVQAGGSLRLSCAPSGFIFVSNAMVWYRQEPGKERELFADITSRGDSTYYADSVKGRFTISRDNAKNTVYLQMNSLKPEDTAVYYCAVDQLYFPWSFSWYGYWGQGTQVTVSS
- polyreactivity (PSR sort gate): low polyreactivity

Sequence: QVQLVESAGGLVQAGASLRLSCDASGSTFVYYDMGWYRQAPGKERELVASISWSGGSTSYSDSVKGRFTISRDNAKNTVYLQMNSLKPEDTAVYYCNKSNPDYDGLAIHAFDYWGQGTQVTVSS
- polyreactivity (PSR sort gate): low polyreactivity
